# T1: hNectin-4-His (human Nectin-4 extracellular antigen) (Homo sapiens, UniProt Q96NY8)
# T1 construct: made in house
# T1 sequence (Q96NY8 with tags, fused parts or gaps): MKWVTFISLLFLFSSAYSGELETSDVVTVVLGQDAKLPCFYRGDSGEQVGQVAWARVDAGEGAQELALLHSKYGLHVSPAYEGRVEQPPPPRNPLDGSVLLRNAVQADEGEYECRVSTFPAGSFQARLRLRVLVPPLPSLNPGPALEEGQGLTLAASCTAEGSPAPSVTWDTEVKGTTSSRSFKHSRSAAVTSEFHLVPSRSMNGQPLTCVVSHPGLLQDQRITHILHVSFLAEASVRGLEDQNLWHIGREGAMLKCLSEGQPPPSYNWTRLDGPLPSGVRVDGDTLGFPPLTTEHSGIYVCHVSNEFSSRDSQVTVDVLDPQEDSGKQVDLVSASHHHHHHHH
# Target: T1, hNectin-4-His (human Nectin-4 extracellular antigen)
# Assay: SPR (BIAcore) affinity assay
# Type: binding
# Conditions: Table 13
# Experimental: In this study, the affinity of the antibodies for the human Nectin-4 extracellular antigen was detected by surface plasmon resonance (SPR) technique (BIAcore: GE Healthcare, T200).
# Capture was performed using a Protein A chip (Cat #29127556, GE Healthcare), and 5 µg/mL antibody dilutions (in HBS-EP+(10×): GE Healthcare, Cat #BR-1006-69, with a working concentration of 1×) were directed through the experimental flow channels (Fc2 and Fc4) at a flow rate of 10 μL/min for 10 s; then, the flow rate was adjusted to 30 μL/min, the hNectin-4-His dilutions at different concentrations (0 nM, 1.23 nM, 3.7 nM, 11.1 nM, 33.3 nM, and 100 nM) were sequentially added, and simultaneously directed through the surfaces of the experimental flow channels (Fc2 and Fc4) and reference flow channels (Fc1 and Fc3) with an association time of 120 s and a dissociation time of 180 s, and finally, the chip was regenerated in Glycine 1.5.
ka [M⁻¹ s⁻¹],kd [s⁻¹],Molecule
471000,0.00141,"1G8-1G3: VH SEQ ID NO: 98 (antibody, V domains shown) VH: EVQLVESGGGLVQPGGSLRLSCAASGFNFGTYAMSWVRQAPGKGLEWVSRISGISAGTNYADSVKGRFTISRDNSKNTLYLQMNSLRAEDTAVYYCARQTEDRSYGYDLDYWGQGTLVTVSS"
665000,0.00087,"1G8-1E10: VH SEQ ID NO: 90 (antibody, V domains shown) VH: EVQLVESGGGLVQPGGSLRLSCAASGDSFSTYAMSWVRQAPGKGLEWVSRISGSGDGKDYADSVKGRFTISRDNSKNTLYLQMNSLRAEDTAVYYCARQTEDRSYGYDLDYWGQGTLVTVSS"
742000,0.00147,"1G8-2B3: VH SEQ ID NO: 109 (antibody, V domains shown) VH: EVQLVESGGGLVQPGGSLRLSCAASGYNFTTSAMSWVRQAPGKGLEWVSRIYQDSSTTDYADSVKGRFTISRDNSKNTLYLQMNSLRAEDTAVYYCARQTEDRSYGYDLDYWGQGTLVTVSS"
